Results as given in PMC12823420.
Each block holds one substance with its values, some of them ahead of it.

Experiments:
[1] = biological target: ALYREF N-UBM peptide, biotinylated (human); assay: grating-coupled interferometry (GCI); biotinylated UBM or UCM peptides captured on a streptavidin chip; UAP56 injected; 25 mM HEPES pH 7.9, 50 mM KCl, 1 mM MgCl2, 1 mM TCEP, 25 °C; one-to-one model; UCM peptides also with AMP-PNP or AMP-PNP and 15 U RNA
[2] = biological target: the THO complex (recombinant, surface-immobilized; tetramer, dimer or monomer, not told apart in the sentence); assay: grating-coupled interferometry (GCI); V5-tagged THO complex captured on an anti-V5 chip; UAP56 injected in a 1:2 series from 5 μM, alone or with only 1 mM ATP or only 200 μM 15 U RNA; 25 mM HEPES pH 7.9, 50 mM KCl, 1 mM MgCl2, 1 mM TCEP, 25 °C; one-to-one model
[3] = biological target: UAP56;SARNP (Homo sapiens;Homo sapiens) (UniProt Q13838); assay: pull-down; settings: 1 mM AMP-PNP; UAP56 bound with SARNP set to 100%; GCI: 25 mM HEPES pH 7.9, 50 mM KCl, 1 mM MgCl2, 1 mM TCEP, 1 mM ATP, 25 C; AdML pull-down: 20 mM HEPES pH 7.9, 100 mM KCl, 2 mM MgCl2, 5% glycerol, 0.1% …
[4] = biological target: UAP56-UCM-1-N-UBM fusion (Homo sapiens) (UniProt Q13838+P82979+Q86V81); assay: GCI; settings: 1 mM ATP, RNA immobilized, GCI: 25 mM HEPES pH 7.9, 50 mM KCl, 1 mM MgCl2, 1 mM TCEP, 25 C, AdML pull-down: 20 mM HEPES pH 7.9, 100 mM KCl, 2 mM MgCl2, 5% glycerol, 0.1% …

Kd [1]: 28 µM
Kd [2]: 0.24 to 0.39 µM
Substance: UAP56 (from UniProt Q13838 1-428) (enzyme)

Substance: AdML RNA with MS2 loops, 450 nt
binding signal [3]: 100%

Substance: UUUUUUUUUUUUUUU [15U RNA]
Kd [4]: 0.12 µM
